Experimental data taken from patent publication US20220185894A1 (F STAR THERAPEUTICS, published 2022).
“And” between values parts separate entries of the source, which are not always exact repeats. Equal entries are not always repeated.

Tests used:
[1] = target: T1, human PD-L1 Fc (R&D Systems, 156-B7) (human, UniProt Q9NZQ7 19-239); experiment: SPR, BIAcore T200; mAb2 captured on Protein L, PD-L1 Fc injected
T1 construct: Bought protein; not shown: Fc tag of the bought fusion protein

[2] = target: T2, recombinant Fc-tagged human LAG-3 (R&D Systems, 2319-L3-050) (human, UniProt P18627 23-450); experiment: SPR, BIAcore T200; mAb2 captured on Protein L, human LAG-3 Fc injected
T2 construct: Bought protein; also called LAG-3 Fc; human LAG-3-Fc; not shown: Fc tag of the bought fusion protein
T2 sequence: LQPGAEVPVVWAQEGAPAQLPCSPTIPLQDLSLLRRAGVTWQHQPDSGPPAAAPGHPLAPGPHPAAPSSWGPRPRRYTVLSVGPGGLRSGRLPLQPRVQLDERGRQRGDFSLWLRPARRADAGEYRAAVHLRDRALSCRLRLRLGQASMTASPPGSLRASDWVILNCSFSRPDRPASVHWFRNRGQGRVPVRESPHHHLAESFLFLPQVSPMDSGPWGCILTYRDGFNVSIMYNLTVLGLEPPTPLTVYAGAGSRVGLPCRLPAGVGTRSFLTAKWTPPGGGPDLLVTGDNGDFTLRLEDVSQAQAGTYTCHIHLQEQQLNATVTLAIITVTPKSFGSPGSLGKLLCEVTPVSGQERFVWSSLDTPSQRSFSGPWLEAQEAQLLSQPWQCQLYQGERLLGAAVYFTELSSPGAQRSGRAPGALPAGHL

[3] = target: human PD-L1 expressed on cells (human, UniProt Q9NZQ7 19-290); experiment: cell-based or functional assay
[4] = target: T3, cynomolgus PD-L1 expressed on cells (cynomolgus monkey, UniProt Q9NZQ7 19-290 (human entry)); experiment: flow cytometry on HEK cells expressing cynomolgus PD-L1
T3 construct: also called cPD-L1; cyno PD-L1
Protocol: HEK cells expressing human or cynomolgus PD-L1 grown in DMEM (Life Technologies, 61965-026) containing 10% FBS (Life Technologies, 10270-1-6), 100 μg/ml Hygromycin B (Melford Laboratories Ltd, Z2475), 15 μg/ml Blasticidin (Melford Laboratories Ltd, B1105) and 1 μg/ml Doxycyclin (Sigma, D9891) were detached from tissue culture flasks using cell dissociation buffer (Life Technologies, 13151-014) and seeded in V-bottom 96-well plates (Costar, 3897) at 2×10⁵ cells/well. The plates were centrifuged at 1500 rpm for 3 min at 4° C. to pellet the cells. A dilution series of the mAb² (or control mAb) was incubated with the cells in a 100 μl volume for 1 h at 4° C. The plates were washed and secondary antibody (Anti-human Fc-488, Jackson ImmunoResearch, 109-546-098) was diluted 1:1000 in PBS and 100 μl was added to the cells for 30 min at 4° C. (plates were kept in the dark). The plates were washed then cells were resuspended in 100 μl PBS containing 1 μg/ml DAPI (Biotium, 40043). The plates were read using Canto II flow cytometer (BD Bioscience). Dead cells were excluded and the fluorescence in the FITC channel (488 nm/530/30) was measured. The data was fit using log (agonist) vs response in GraphPad Prism Software. The plates were read on a BD FACSCanto II cytometer (BD Biosciences) and the data analysed using FlowJo.

T1 sequence (Q9NZQ7 19-239 limits assumed): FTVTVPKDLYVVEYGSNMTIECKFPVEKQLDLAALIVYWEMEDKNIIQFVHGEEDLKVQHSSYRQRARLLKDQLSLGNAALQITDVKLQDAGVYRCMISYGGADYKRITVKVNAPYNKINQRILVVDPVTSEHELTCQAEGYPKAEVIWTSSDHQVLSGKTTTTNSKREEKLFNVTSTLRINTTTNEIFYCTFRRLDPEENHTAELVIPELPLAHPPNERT
T3 sequence (Q9NZQ7 other isoform, or with tags, fused parts or gaps limits assumed): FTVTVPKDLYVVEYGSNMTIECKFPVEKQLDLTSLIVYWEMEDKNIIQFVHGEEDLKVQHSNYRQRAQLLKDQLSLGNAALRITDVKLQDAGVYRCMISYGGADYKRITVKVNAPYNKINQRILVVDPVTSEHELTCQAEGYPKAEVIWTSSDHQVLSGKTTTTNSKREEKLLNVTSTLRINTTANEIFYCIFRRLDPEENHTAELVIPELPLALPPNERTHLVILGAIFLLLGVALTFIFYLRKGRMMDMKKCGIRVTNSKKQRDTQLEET
Sequence of human PD-L1 expressed on cells (Q9NZQ7 19-290 limits assumed): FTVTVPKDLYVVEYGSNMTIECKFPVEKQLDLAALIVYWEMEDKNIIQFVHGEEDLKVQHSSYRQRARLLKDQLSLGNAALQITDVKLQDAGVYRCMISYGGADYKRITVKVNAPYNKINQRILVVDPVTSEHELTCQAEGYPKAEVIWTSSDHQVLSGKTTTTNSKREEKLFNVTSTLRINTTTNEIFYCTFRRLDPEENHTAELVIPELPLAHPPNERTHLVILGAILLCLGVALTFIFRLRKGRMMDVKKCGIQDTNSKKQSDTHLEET

- Kd [1]: 1 nM
- koff [1]: 0.00039 s⁻¹
- kon [1]: 380000 M⁻¹ s⁻¹
- Kd [2]: 0.056 nM
- koff [2]: 0.00035 s⁻¹
- kon [2]: 6.3e+06 M⁻¹ s⁻¹
- Maximal IL2 release calculated as % ctrl (84G09 + 25F7) [3]: 65.9%
- EC50 [4]: 1.67 nM and 1.81 nM
B1: anti-human LAG-3/PD-L1 mAb2 FS18-7-9/84G09 with LALA mutation (bispecific antibody, human IgG1, kappa, L234A L235A)
heavy: EVQLVESGGGLVQPGRSLRLSCAASGFTFDDYAMHWVRQTPGKGLEWVSGISWKSNIIGYADSVKGRFTISRDNAKNSLYLQMNSLRAEDTALYYCARDITGSGSYGWFDPWGQGTLVTVSSASTKGPSVFPLAPSSKSTSGGTAALGCLVKDYFPEPVTVSWNSGALTSGVHTFPAVLQSSGLYSLSSVVTVPSSSLGTQTYICNVNHKPSNTKVDKKVEPKSCDKTHTCPPCPAPEAAGGPSVFLFPPKPKDTLMISRTPEVTCVVVDVSHEDPEVKFNWYVDGVEVHNAKTKPREEQYNSTYRVVSVLTVLHQDWLNGKEYKCKVSNKALPAPIEKTISKAKGQPREPQVYTLPPSWDEPWGEDVSLTCLVKGFYPSDIAVEWESNGQPENNYKTTPPVLDSDGSFFLYSKLTVPYDRWVWPDEFSCSVMHEALHNHYTQKSLSLSPG
light: DIQMTQSPSSLSASVGDRVTITCRASQSISSYLNWYQQKPGKAPKPLIYVASSLQSGVPSSFSGSGSGTDFTLTISSLQPEDFATYYCQQSYSNPITFGQGTRLEIKRTVAAPSVFIFPPSDEQLKSGTASVVCLLNNFYPREAKVQWKVDNALQSGNSQESVTEQDSKDSTYSLSSTLTLSKADYEKHKVYACEVTHQGLSSPVTKSFNRGEC
notes: also called FS18-7-09/84G09LALA; FS18-7-9/84G09 LALA
